{"source": "paper doi:10.1101/2021.01.29.428852", "about": "(bioRxiv, 2021)", "binders": {"B1": {"name": "most expanded antibody variant of the NP-specific, second most expanded IgG clone (antibody, V domains shown)", "VH": "EVQLQQSGPELVKPGASVKMSCKASGYTFTDYNMHWVKQSHGKSLEWIGYINPNNGGTSYNQKFKGKATLTVNKSSSTAYMELRSLTSEDSAVYYCAREGGYWYFDVWGTGTTVTVSS", "VL": "DIVMTQSHKFMSTSVGDRVSITCKASQDVSTAVAWYQQKPGQSPKLLIYWASTRHTGVPDRFTGSGSGTDYTLTISSVQAEDLALYYCQQHYSTPFTFGSGTKLEIK"}}, "target": "LCMV clone 13 nucleocapsid protein (NP), purified recombinant (Lymphocytic choriomeningitis virus, …, UniProt P09992, strain)", "assay": "ELISA"}
{"binder": "B1", "values": [{"measurement": "binding result", "value": "binds"}]}
